The source of these data is US20240270861A1 (DRAGONFLY THERAPEUTICS, published 2024).

The target of test [1] is T1, hBAFF-R-hFc-His fusion protein (human, UniProt Q96RJ3 1-78, biotinylated where used as yeast display probe).
T1 construct: also called hBAFFR-Fc; biotinylated hBAFF-R-hFc-His
Briefly: yeast display flow cytometry after challenge: 100 pM hBAFFR-Fc biotin for 1hr at RT, then 1 mM nonbiotinylated hBAFFR-Fc (as printed on the sheet). A general note: In flow cytometry, cells or beads pass a laser one at a time.

The target in a further test is T2, cynomolgus CD16 (cynomolgus monkey, UniProt Q8SPW2 17-208).
T2 construct: also called cyno CD16; FcγRIII (cynomolgus)
T2 sequence (Q8SPW2 17-208 limits assumed): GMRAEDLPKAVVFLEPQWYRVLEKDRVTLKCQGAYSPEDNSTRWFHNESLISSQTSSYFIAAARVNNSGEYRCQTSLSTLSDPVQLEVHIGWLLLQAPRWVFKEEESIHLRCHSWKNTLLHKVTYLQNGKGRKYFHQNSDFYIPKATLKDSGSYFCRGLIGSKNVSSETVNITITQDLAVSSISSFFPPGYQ
The test can be described thus: SPR, kinetics fit.

A further test has as its target T3, human CD16a V158 (human, UniProt P08637 17-208).
T3 construct: Recombinant receptor in SPR; in the cytotoxicity assays expressed on KHYG-1-CD16aV cells; also called hCD16aV; hCD16a V158
The test can be described thus: SPR, qualitative (Table 40 not given). Background: Surface plasmon resonance follows binding to a sensor surface in real time, without labels.

T3 sequence (P08637 17-208 F176V limits assumed): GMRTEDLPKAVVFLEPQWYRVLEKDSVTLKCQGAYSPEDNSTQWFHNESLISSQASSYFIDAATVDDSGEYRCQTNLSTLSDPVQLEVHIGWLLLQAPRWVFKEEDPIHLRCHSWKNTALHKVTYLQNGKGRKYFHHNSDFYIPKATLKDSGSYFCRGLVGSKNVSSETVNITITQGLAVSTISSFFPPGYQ

B1: AB1080scFv displayed on yeast (scFv, V domains shown)
VH: EVQLVQSGGGVVQPGRSLRLSCAASGFTFSSYGMHWVRQAPGKCLEWVAVIWYDASNKYYGDSVKGRFTISRDNSKNTLYLQMNSLRDEDTAVYYCARRFTHLRGWYIEDYGLDVWGQGTTVTVSS
VL: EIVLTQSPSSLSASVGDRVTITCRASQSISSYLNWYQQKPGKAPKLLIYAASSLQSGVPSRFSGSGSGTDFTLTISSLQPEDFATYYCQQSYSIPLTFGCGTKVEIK
notes: scFv on yeast
Consider B1, for which, in test [1], the “Iana (drawn gate)” value was 23.4 % (unit not printed).

B2: AB1084scFv displayed on yeast (scFv, V domains shown)
VH: EVQLVQSGGGVVQPGRSLRLSCAASGFTFSMYGMHWVRQAPGKCLEWVAVIWYDASNKYYGDSVKGRFTISRDNSKNTLYLQMNSLRDEDTAVYYCARRFTRLRGWYIEDYGLDVWGQGTTVTVSS
VL: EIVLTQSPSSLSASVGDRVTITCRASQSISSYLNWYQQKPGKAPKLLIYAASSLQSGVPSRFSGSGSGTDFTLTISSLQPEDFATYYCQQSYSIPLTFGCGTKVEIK
notes: scFv on yeast
With B2, in test [1], the “Iana (drawn gate)” value was 7.4 % (unit not printed).

B3: AB1081scFv displayed on yeast (scFv, V domains shown)
VH: EVQLVQSGGGVVQPGRSLRLSCAASGFAFSSYGMHWVRQAPGKCLEWVAVIWYDESNKYYGDSVKGRFTISRDNSRNTLYLQMNSLRDEDTAVYYCARRFTNLRGWIIEDYGLDVWGQGTTVTVSS
VL: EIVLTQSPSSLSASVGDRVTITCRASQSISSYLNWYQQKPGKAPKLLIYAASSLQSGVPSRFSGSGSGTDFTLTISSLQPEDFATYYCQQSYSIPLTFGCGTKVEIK
notes: scFv on yeast
As to B3, the “Iana (drawn gate)” value in test [1] was 27.2 % (unit not printed).

B4: AB1424/AB1612 F3′ TriNKET (bispecific antibody, human IgG1, kappa)
chain: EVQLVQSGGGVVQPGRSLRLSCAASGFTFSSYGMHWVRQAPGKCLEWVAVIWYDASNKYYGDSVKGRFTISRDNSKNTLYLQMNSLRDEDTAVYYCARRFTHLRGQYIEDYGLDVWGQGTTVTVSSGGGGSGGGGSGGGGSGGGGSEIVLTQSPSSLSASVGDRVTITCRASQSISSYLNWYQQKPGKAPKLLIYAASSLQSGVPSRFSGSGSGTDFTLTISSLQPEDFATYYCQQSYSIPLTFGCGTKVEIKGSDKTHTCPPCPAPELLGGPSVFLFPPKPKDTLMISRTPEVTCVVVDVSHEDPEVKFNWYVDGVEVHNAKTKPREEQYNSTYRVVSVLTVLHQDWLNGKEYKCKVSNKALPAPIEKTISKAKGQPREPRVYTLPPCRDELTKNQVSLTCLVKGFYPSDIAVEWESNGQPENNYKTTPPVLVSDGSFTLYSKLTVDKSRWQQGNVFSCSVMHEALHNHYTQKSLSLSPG
heavy: EVQLVESGGGLVKPGGSLRLSCAASGFTFSSYSMNWVRQAPGKGLEWVSSISSSSSYIYYADSVKGRFTISRDNAKNSLYLQMNSLRAEDTAVYYCARGAPIGAAAGWFDPWGQGTLVTVSSASTKGPSVFPLAPSSKSTSGGTAALGCLVKDYFPEPVTVSWNSGALTSGVHTFPAVLQSSGLYSLSSVVTVPSSSLGTQTYICNVNHKPSNTKVDKKVEPKSCDKTHTCPPCPAPELLGGPSVFLFPPKPKDTLMISRTPEVTCVVVDVSHEDPEVKFNWYVDGVEVHNAKTKPREEQYNSTYRVVSVLTVLHQDWLNGKEYKCKVSNKALPAPIEKTISKAKGQPREPQVCTLPPSRDELTENQVSLTCLVKGFYPSDIAVEWESNGQPENNYKTTPPVLDSDGSFFLYSWLTVDKSRWQQGNVFSCSVMHEALHNHYTQKSLSLSPG
light: DIQMTQSPSSVSASVGDRVTITCRASQGISSWLAWYQQKPGKAPKLLIYAASSLQSGVPSRFSGSGSGTDFTLTISSLQPEDFATYYCQQGVSFPRTFGGGTKVEIKRTVAAPSVFIFPPSDEQLKSGTASVVCLLNNFYPREAKVQWKVDNALQSGNSQESVTEQDSKDSTYSLSSTLTLSKADYEKHKVYACEVTHQGLSSPVTKSFNRGEC
notes: Chain S anti-BAFF-R scFv-CH2-CH3, Chain H and Chain L anti-NKG2D A49MI Fab; also called AB1612-002
What is called Kd is the equilibrium constant for the complex coming apart. Low readings indicate higher affinity, high ones lower affinity. The molecule B4 gave a Kd in the test with cynomolgus CD16 of 232 nM.

B5: AB1424/AB1612 F3′ TriNKET FcγRsi (bispecific antibody)
chain: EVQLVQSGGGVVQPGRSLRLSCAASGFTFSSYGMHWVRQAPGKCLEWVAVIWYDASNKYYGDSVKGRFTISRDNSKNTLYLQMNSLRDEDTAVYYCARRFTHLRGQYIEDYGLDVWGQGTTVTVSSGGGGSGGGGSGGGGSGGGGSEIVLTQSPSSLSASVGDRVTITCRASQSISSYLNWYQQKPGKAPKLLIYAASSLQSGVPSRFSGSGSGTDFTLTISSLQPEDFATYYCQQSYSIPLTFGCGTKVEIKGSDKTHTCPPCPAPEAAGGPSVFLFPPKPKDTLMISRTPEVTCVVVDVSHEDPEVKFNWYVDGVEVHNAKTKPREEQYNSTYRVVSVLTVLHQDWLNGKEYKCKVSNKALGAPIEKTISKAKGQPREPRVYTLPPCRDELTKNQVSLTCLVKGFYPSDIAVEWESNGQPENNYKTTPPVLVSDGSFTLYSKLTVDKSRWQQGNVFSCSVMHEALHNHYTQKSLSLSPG
heavy: EVQLVESGGGLVKPGGSLRLSCAASGFTFSSYSMNWVRQAPGKGLEWVSSISSSSSYIYYADSVKGRFTISRDNAKNSLYLQMNSLRAEDTAVYYCARGAPIGAAAGWFDPWGQGTLVTVSSASTKGPSVFPLAPSSKSTSGGTAALGCLVKDYFPEPVTVSWNSGALTSGVHTFPAVLQSSGLYSLSSVVTVPSSSLGTQTYICNVNHKPSNTKVDKKVEPKSCDKTHTCPPCPAPEAAGGPSVFLFPPKPKDTLMISRTPEVTCVVVDVSHEDPEVKFNWYVDGVEVHNAKTKPREEQYNSTYRVVSVLTVLHQDWLNGKEYKCKVSNKALGAPIEKTISKAKGQPREPQVCTLPPSRDELTENQVSLTCLVKGFYPSDIAVEWESNGQPENNYKTTPPVLDSDGSFFLYSWLTVDKSRWQQGNVFSCSVMHEALHNHYTQKSLSLSPG
light: DIQMTQSPSSVSASVGDRVTITCRASQGISSWLAWYQQKPGKAPKLLIYAASSLQSGVPSRFSGSGSGTDFTLTISSLQPEDFATYYCQQGVSFPRTFGGGTKVEIKRTVAAPSVFIFPPSDEQLKSGTASVVCLLNNFYPREAKVQWKVDNALQSGNSQESVTEQDSKDSTYSLSSTLTLSKADYEKHKVYACEVTHQGLSSPVTKSFNRGEC
notes: Positions are EU numbers, not positions on the entries; also called AB1424/AB1612 F3′ TriNKET-Fc-si; AB1424/AB1612 F3′ TriNKET-Fc silenced
In the case of B5, in the test with human CD16a V158, the binding result was “no binding”.
